Data reported in paper PMC3688935, “Coordinated Binding of Single-Stranded and Double-Stranded DNA by UvsX Recombinase”.

Target: UvsX recombinase (bacteriophage T4, UniProt P04529 1-391)
Experiment: fluorescence quenching; no nucleotide cofactor; 20 mM Tris-HCl pH 7.4, 50 mM NaCl, 3 mM MgCl2, 25 C; DNA in nucleotides or base pairs; quadratic fit with 4 nt (bp) site size
Details: protein: recombinant; tags: none stated (pET27b, E. coli BL21(DE3)); label: AlexaFluor 546 on X (position 23); single strand

Chain of UvsX recombinase (P04529 whole entry): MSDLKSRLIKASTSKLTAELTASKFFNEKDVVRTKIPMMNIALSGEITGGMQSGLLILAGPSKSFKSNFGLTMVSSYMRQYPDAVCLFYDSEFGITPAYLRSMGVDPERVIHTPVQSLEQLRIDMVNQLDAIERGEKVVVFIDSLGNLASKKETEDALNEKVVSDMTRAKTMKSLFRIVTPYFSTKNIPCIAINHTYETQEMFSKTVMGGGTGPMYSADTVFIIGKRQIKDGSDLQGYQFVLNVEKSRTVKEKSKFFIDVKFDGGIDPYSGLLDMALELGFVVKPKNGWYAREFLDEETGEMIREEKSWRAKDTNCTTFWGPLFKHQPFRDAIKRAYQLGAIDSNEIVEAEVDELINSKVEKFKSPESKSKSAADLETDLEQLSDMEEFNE

TTTTTTTTTTTTTTTTTTTTTTTTT (ssDNA, X at position 23 = amino-modifier C2 dT) [dT22XT2 ssDNA]
binding result: binds
